# Experimental data: paper PMC9253567
# Values joined by “and” are separate entries in the source; they are usually repeats but may differ in a detail not shown here. Equal entries are not always repeated.
# B1: FLAG-tagged ZAPS WT (zinc finger antiviral protein, short isoform), Q7Z2W4-2 1-699 (natural protein)
# chain: MADPEVCCFITKILCAHGGRMALDALLQEIALSEPQLCEVLQVAGPDRFVVLETGGEAGITRSVVATTRARVCRRKYCQRPCDNLHLCKLNLLGRCNYSQSERNLCKYSHEVLSEENFKVLKNHELSGLNKEELAVLLLQSDPFFMPEICKSYKGEGRQQICNQQPPCSRLHICDHFTRGNCRFPNCLRSHNLMDRKVLAIMREHGLNPDVVQNIQDICNSKHMQKNPPGPRAPSSHRRNMAYRARSKSRDRFFQGSQEFLASASASAERSCTPSPDQISHRASLEDAPVDDLTRKFTYLGSQDRARPPSGSSKATDLGGTSQAGTSQRFLENGSQEDLLHGNPGSTYLASNSTSAPNWKSLTSWTNDQGARRKTVFSPTLPAARSSLGSLQTPEAVTTRKGTGLLSSDYRIINGKSGTQDIQPGPLFNNNADGVATDITSTRSLNYKSTSSGHREISSPRIQDAGPASRDVQATGRIADDADPRVALVNDSLSDVTSTTSSRVDDHDSEEICLDHLCKGCPLNGSCSKVHFHLPYRWQMLIGKTWTDFEHMETIEKGYCNPGIHLCSVGSYTINFRVMSCDSFPIRRLSTPSSVTKPANSVFTTKWIWYWKNESGTWIQYGEEKDKRKNSNVDSSYLESLYQSCPRGVVPFQAGSRNYELSFQGMIQTNIASKTQKDVIRRPTFVPQWYVQQMKRGPE
# Biological target: myc-tagged TRIM25 WT (tripartite motif-containing protein 25), Q14258
# Sequence (Q14258 whole entry): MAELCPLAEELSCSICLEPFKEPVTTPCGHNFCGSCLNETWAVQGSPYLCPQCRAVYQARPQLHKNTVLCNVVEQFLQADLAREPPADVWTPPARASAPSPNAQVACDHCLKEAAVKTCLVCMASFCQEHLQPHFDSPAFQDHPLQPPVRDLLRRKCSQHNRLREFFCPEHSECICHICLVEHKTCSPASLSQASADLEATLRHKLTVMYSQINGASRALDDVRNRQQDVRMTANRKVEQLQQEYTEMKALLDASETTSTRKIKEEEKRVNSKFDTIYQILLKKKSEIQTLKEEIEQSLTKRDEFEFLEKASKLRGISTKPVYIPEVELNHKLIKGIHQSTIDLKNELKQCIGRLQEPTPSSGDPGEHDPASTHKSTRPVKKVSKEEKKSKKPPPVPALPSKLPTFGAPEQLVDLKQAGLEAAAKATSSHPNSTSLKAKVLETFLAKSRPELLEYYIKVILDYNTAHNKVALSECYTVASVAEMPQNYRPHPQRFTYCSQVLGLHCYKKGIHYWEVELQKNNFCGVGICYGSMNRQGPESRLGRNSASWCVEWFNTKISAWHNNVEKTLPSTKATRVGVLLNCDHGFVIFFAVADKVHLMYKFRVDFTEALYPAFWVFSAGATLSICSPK
# Test: co-IP; myc IP (anti-myc beads) of myc-TRIM25 WT from lysates of ZAP KO 293T cells co-transfected with FLAG-ZAPS or FLAG-ZAPL WT or mutants; FLAG-ZAP detected by immunoblot; FLAG IP buffer (100 mM Tris-HCl 8.0, 150 mM NaCl, 5 mM EDTA, 1 mM DTT, 5% glycerol, 0.1% NP-40), 4°C, 45 min; FLAG IP band divided by myc IP band (ImageJ)
# Conditions: remark: other sources report otherwise
binder,measurement,value
B1,"ZAP-TRIM25 interaction (co-IP, FLAG-ZAP band over myc-TRIM25 band, ImageJ)",0.131 and 0.304
